Assay results taken from the supplement of paper PMC9112550, “Optimization of the antimicrobial peptide Bac7 by deep mutational scanning” (BMC Biology, 2022).

test system: Escherichia coli TOP10; assay: shrunken log2 fold change of peptide-encoding DNA abundance (4.5 h post-induction vs induction); higher = less antimicrobial activity (less host growth inhibition); conditions: time post-induction: 4.5 h; library: site-saturation at positions 5, 18, 19, 20
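Further: peptides expressed intracellularly from a pBAD plasmid library in pooled LB shake-flask culture, induced with 0.3% L-arabinose, DNA abundance read by NGS, three biological replicates, DESeq2 with apeglm shrinkage.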

Sequence	shrunken log2 fold change
RRIRFRPPRLPRPRPRPSGVPRP	0.0832
RRIRFRPPRLPRPRPRPSIAPRP	-0.271
RRIRFRPPRLPRPRPRPSIHPRP	-0.84
RRIRFRPPRLPRPRPRPSITPRP	-0.262
RRIRFRPPRLPRPRPRPSKWPRP	-0.273
RRIRFRPPRLPRPRPRPSLDPRP	-0.296
RRIRFRPPRLPRPRPRPSMFPRP	-0.505
RRIRFRPPRLPRPRPRPSNWPRP	-0.284
RRIRFRPPRLPRPRPRPSRFPRP	-0.0395
RRIRFRPPRLPRPRPRPSSKPRP	-0.32
RRIRFRPPRLPRPRPRPSTPPRP	-0.463
RRIRFRPPRLPRPRPRPSVLPRP	-0.246
RRIRFRPPRLPRPRPRPSWAPRP	-0.308
RRIRFRPPRLPRPRPRPSWKPRP	0.206
RRIRFRPPRLPRPRPRPSYPPRP	-0.161
RRIRFRPPRLPRPRPRPSYVPRP	-0.501
RRIRFRPPRLPRPRPRPTAAPRP	0.569
RRIRFRPPRLPRPRPRPTARPRP	0.336
RRIRFRPPRLPRPRPRPTATPRP	0.355
RRIRFRPPRLPRPRPRPTCCPRP	-0.0828
RRIRFRPPRLPRPRPRPTDCPRP	-0.0151
RRIRFRPPRLPRPRPRPTDEPRP	0.00361
RRIRFRPPRLPRPRPRPTEFPRP	-0.217
RRIRFRPPRLPRPRPRPTETPRP	-0.0161
RRIRFRPPRLPRPRPRPTGDPRP	0.127

Sequence	shrunken log2 fold change
RRIRFRPPRLPRPRPRPTGNPRP	-0.245
RRIRFRPPRLPRPRPRPTGVPRP	0.123
RRIRFRPPRLPRPRPRPTIDPRP	0.103
RRIRFRPPRLPRPRPRPTIIPRP	-0.66
RRIRFRPPRLPRPRPRPTIKPRP	-0.223
RRIRFRPPRLPRPRPRPTKIPRP	0.359
RRIRFRPPRLPRPRPRPTLAPRP	0.361
RRIRFRPPRLPRPRPRPTLTPRP	0.445
RRIRFRPPRLPRPRPRPTMKPRP	-0.178
RRIRFRPPRLPRPRPRPTMMPRP	-0.0556
RRIRFRPPRLPRPRPRPTNKPRP	-0.301
RRIRFRPPRLPRPRPRPTNPPRP	-0.0887
RRIRFRPPRLPRPRPRPTNWPRP	0.426
RRIRFRPPRLPRPRPRPTQGPRP	0.215
RRIRFRPPRLPRPRPRPTQIPRP	0.0911
RRIRFRPPRLPRPRPRPTQNPRP	0.541
RRIRFRPPRLPRPRPRPTRWPRP	0.117
RRIRFRPPRLPRPRPRPTSIPRP	-0.296
RRIRFRPPRLPRPRPRPTSMPRP	-0.00284
RRIRFRPPRLPRPRPRPTTWPRP	0.0564
RRIRFRPPRLPRPRPRPTVWPRP	0.19
RRIRFRPPRLPRPRPRPTVYPRP	-0.307
RRIRFRPPRLPRPRPRPTWKPRP	0.32
RRIRFRPPRLPRPRPRPVAVPRP	0.105
RRIRFRPPRLPRPRPRPVDLPRP	-0.102

Sequence	shrunken log2 fold change
RRIRFRPPRLPRPRPRPVDQPRP	0.0138
RRIRFRPPRLPRPRPRPVDYPRP	-0.031
RRIRFRPPRLPRPRPRPVELPRP	-0.00737
RRIRFRPPRLPRPRPRPVFPPRP	-0.224
RRIRFRPPRLPRPRPRPVFTPRP	-0.0271
RRIRFRPPRLPRPRPRPVHDPRP	0.0232
RRIRFRPPRLPRPRPRPVHEPRP	-0.0618
RRIRFRPPRLPRPRPRPVHMPRP	-0.0472
RRIRFRPPRLPRPRPRPVKHPRP	-0.222
RRIRFRPPRLPRPRPRPVLGPRP	-0.127
RRIRFRPPRLPRPRPRPVNLPRP	0.025
RRIRFRPPRLPRPRPRPVNPPRP	-0.154
RRIRFRPPRLPRPRPRPVPCPRP	0.0335
RRIRFRPPRLPRPRPRPVQNPRP	0.0293
RRIRFRPPRLPRPRPRPVQVPRP	-0.416
RRIRFRPPRLPRPRPRPVSAPRP	0.25
RRIRFRPPRLPRPRPRPVSHPRP	-0.266
RRIRFRPPRLPRPRPRPVTPPRP	0.241
RRIRFRPPRLPRPRPRPVVIPRP	0.0715
RRIRFRPPRLPRPRPRPVVRPRP	0.153
RRIRFRPPRLPRPRPRPVWGPRP	0.311
RRIRFRPPRLPRPRPRPVYGPRP	-0.286
RRIRFRPPRLPRPRPRPWACPRP	-0.15
RRIRFRPPRLPRPRPRPWAKPRP	-0.0227
RRIRFRPPRLPRPRPRPWAPPRP	-0.013

Sequence	shrunken log2 fold change
RRIRFRPPRLPRPRPRPWATPRP	0.0109
RRIRFRPPRLPRPRPRPWCQPRP	-0.0361
RRIRFRPPRLPRPRPRPWEEPRP	-0.159
RRIRFRPPRLPRPRPRPWFGPRP	-0.191
RRIRFRPPRLPRPRPRPWGPPRP	-0.106
RRIRFRPPRLPRPRPRPWGTPRP	-0.131
RRIRFRPPRLPRPRPRPWHWPRP	0.00852
RRIRFRPPRLPRPRPRPWIIPRP	-0.00565
RRIRFRPPRLPRPRPRPWILPRP	-0.144
RRIRFRPPRLPRPRPRPWKQPRP	-0.469
RRIRFRPPRLPRPRPRPWKTPRP	-0.0119
RRIRFRPPRLPRPRPRPWMAPRP	-0.254
RRIRFRPPRLPRPRPRPWMGPRP	-0.592
RRIRFRPPRLPRPRPRPWMRPRP	0.495
RRIRFRPPRLPRPRPRPWNYPRP	-0.605
RRIRFRPPRLPRPRPRPWPAPRP	-0.0371
RRIRFRPPRLPRPRPRPWPQPRP	0.127
RRIRFRPPRLPRPRPRPWPWPRP	-0.00192
RRIRFRPPRLPRPRPRPWQQPRP	-0.104
RRIRFRPPRLPRPRPRPWRMPRP	-0.166
RRIRFRPPRLPRPRPRPWRNPRP	-0.133
RRIRFRPPRLPRPRPRPWRTPRP	-0.0041
RRIRFRPPRLPRPRPRPWSTPRP	-0.0601
RRIRFRPPRLPRPRPRPWVQPRP	-0.116
RRIRFRPPRLPRPRPRPWVYPRP	-0.327

Sequence	shrunken log2 fold change
RRIRFRPPRLPRPRPRPWWPPRP	0.0712
RRIRFRPPRLPRPRPRPYDNPRP	-0.775
RRIRFRPPRLPRPRPRPYDTPRP	-0.106
RRIRFRPPRLPRPRPRPYFCPRP	-1.05
RRIRFRPPRLPRPRPRPYGAPRP	-0.193
RRIRFRPPRLPRPRPRPYGKPRP	-0.514
RRIRFRPPRLPRPRPRPYGTPRP	-0.81
RRIRFRPPRLPRPRPRPYHPPRP	-0.58
RRIRFRPPRLPRPRPRPYHRPRP	0.045
RRIRFRPPRLPRPRPRPYHYPRP	-0.521
RRIRFRPPRLPRPRPRPYIWPRP	-0.425
RRIRFRPPRLPRPRPRPYKLPRP	-0.438
RRIRFRPPRLPRPRPRPYKMPRP	-0.62
RRIRFRPPRLPRPRPRPYMIPRP	-0.59
RRIRFRPPRLPRPRPRPYMPPRP	-1.09
RRIRFRPPRLPRPRPRPYNIPRP	-0.181
RRIRFRPPRLPRPRPRPYPNPRP	-0.152
RRIRFRPPRLPRPRPRPYPSPRP	-0.018
RRIRFRPPRLPRPRPRPYTAPRP	-1.07
RRIRFRPPRLPRPRPRPYTPPRP	-1.28
RRIRFRPPRLPRPRPRPYTQPRP	-0.152
RRIRFRPPRLPRPRPRPYVLPRP	-0.332
RRIRFRPPRLPRPRPRPYWIPRP	-1.07
RRIRFRPPRLPRPRPRPYWQPRP	-0.9
RRIRGRPPRLPRPRPRPAAFPRP	0.724

Sequence	shrunken log2 fold change
RRIRGRPPRLPRPRPRPAARPRP	1.16
RRIRGRPPRLPRPRPRPACIPRP	0.666
RRIRGRPPRLPRPRPRPADIPRP	-0.229
RRIRGRPPRLPRPRPRPAGIPRP	0.207
RRIRGRPPRLPRPRPRPAGRPRP	0.692
RRIRGRPPRLPRPRPRPAHVPRP	0.586
RRIRGRPPRLPRPRPRPAKIPRP	0.226
RRIRGRPPRLPRPRPRPAKRPRP	0.504
RRIRGRPPRLPRPRPRPAMQPRP	1.05
RRIRGRPPRLPRPRPRPAMRPRP	1.17
RRIRGRPPRLPRPRPRPAPKPRP	1.18
RRIRGRPPRLPRPRPRPAQAPRP	0.505
RRIRGRPPRLPRPRPRPAQEPRP	0.547
RRIRGRPPRLPRPRPRPARKPRP	0.222
RRIRGRPPRLPRPRPRPARSPRP	0.686
RRIRGRPPRLPRPRPRPARWPRP	0.998
RRIRGRPPRLPRPRPRPASAPRP	0.818
RRIRGRPPRLPRPRPRPATSPRP	0.914
RRIRGRPPRLPRPRPRPATYPRP	0.235
RRIRGRPPRLPRPRPRPAWHPRP	0.521
RRIRGRPPRLPRPRPRPAWTPRP	0.619
RRIRGRPPRLPRPRPRPAYEPRP	0.457
RRIRGRPPRLPRPRPRPCAGPRP	0.834
RRIRGRPPRLPRPRPRPCAKPRP	0.661
RRIRGRPPRLPRPRPRPCCDPRP	0.769
